Results published in patent publication US20160215020A1 (published 2016).

Target: complement component C3 (human) (human, UniProt P01024 23-1663)
Test: cell-based or functional assay

IC50, classical complement inhibition assay (C3b deposition ELISA), as a function of CA28 moiety concentration: 1.93 µM
B1: (CA28-AEEAc)8-PEG40k (peptide)
peptide: ICVWQDWGAHRCTK
modifications: N-terminal acetyl; (1Me)Trp at position 4; disulfide Cys2-Cys12; AEEAc between Thr13 and Lys; C-terminal amide; Lys side chain coupled to an arm of an eight-arm 40 kD PEG (NOF SUNBRIGHT HGEO-400GS)
